Patent US8680046B2, “Inhibitors of viral integrase and methods of use” (Integratech Proteomics, LLC, priority 2009, dated 2014)
Ends that are not written are not given here. Peptide text beside a SMILES is read from it.

Key:
peptide solubility = assay type: physicochemical; details: effect of C-terminal tail
HIV IN [1] = target: T1, HIV IN (Human immunodeficiency virus type 1 group M subtype B, UniProt P12497); assay type: biochemical; details: summary statement
HIV IN [2] = target: T1, HIV IN; experiment: yeast two-hybrid screen, growth on -ade plates; assay type: cell-based; design: HIV IN was amplified from the pNL4-3 based provirus (R9) as template and cloned into two expression vectors; expressed in transfected cells; host or cells: Saccharomyces cerevisiae AH109; details: peptide fused to VP16 activation domain, GALDB-IN bait, FIG. 1
From the text: A yeast-based screening platform for identifying inhibitors of IN was constructed. In this platform, HIV IN was amplified from the pNL4-3 based provirus (R9) as template and cloned into two expression vectors resulting in a fusion of IN C-terminus to the GAL4 DNA binding domain (GALDB) and the GAL4 activation domain (GALAD) respectively. By western blot analysis, GALAD-IN was detected (not shown); however, GALDB-IN was barely detectable.
Binders were confirmed by plasmid linkage analysis (FIG. 1).

HPVE7 = HPVE7 (Human papillomavirus type 16, UniProt P03129); details: two-hybrid
From the text: (§1) To identify IN-binding peptides, yeast producing HIV integrase was mated with yeast harboring a random peptide library (15 amino acids in length; 27 million diverse) fused to the VP16 activation domain. […] The peptide was cloned as a C-terminal fusion with VP16-Zsgreen and tested for interaction with the GALDB or GALDB-IN fusion in AH109 Mat a, trp1-901, leu2-3, 112, ura3-52, his3-200, gal4 Δ, gal 80Δ, LYS2::GAL1UAS-GAL1TATA-HIS3, GAL2UAS-GAL2TATA-ADE2, URA3:MEL1UAS-MEL1TATA-lacZ. Growth on -ade plates indicated activation of a selectable reporter.

HPVE6 = HPVE6 (Human papillomavirus type 16, UniProt P03126); details: two-hybrid
From the text: as §1

Sequence of HPVE7 (P03129 whole entry, the tested form may be a part): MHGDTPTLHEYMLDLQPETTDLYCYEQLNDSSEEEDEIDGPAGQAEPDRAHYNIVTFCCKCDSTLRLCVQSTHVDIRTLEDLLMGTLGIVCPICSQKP
Sequence of HPVE6 (P03126 whole entry): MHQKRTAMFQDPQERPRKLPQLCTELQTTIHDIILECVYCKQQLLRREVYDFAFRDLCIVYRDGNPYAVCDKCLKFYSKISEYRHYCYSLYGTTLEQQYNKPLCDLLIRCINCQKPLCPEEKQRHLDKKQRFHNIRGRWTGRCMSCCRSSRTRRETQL

## CC[C@H](C)[C@H](NC(=O)[C@H](CC(C)C)NC(=O)[C@@H](NC(=O)[C@@H](NC(=O)[C@H](CCC(=O)O)NC(=O)[C@H](Cc1ccc(O)cc1)NC(=O)[C@@H](N)CC(C)C)[C@@H](C)O)[C@@H](C)CC)C(=O)N[C@@H](CC(C)C)C(=O)N[C@@H](CC(C)C)C(=O)N[C@@H](Cc1ccccc1)C(=O)N[C@@H](CC(C)C)C(=O)N[C@@H](CC(=O)O)C(=O)N[C@H](C(=O)N[C@@H](CC(=O)O)C(=O)N[C@H](C(=O)NCC(=O)N[C@@H](CCCCN)C(=O)N[C@@H](CCCCN)C(=O)N[C@@H](CCCNC(=N)N)C(=O)O)[C@@H](C)O)C(C)C [B05751] (H-LYETILILLFLDVDTGKKR-OH; N-terminus and C-terminus assumed)
Peptide solubility
  peptide solubility: increased peptide solubility

## LYETILILLFLDVDTG [SEQ ID NO:1]
HIV IN [1]
  inhibition of integration of viral DNA into target DNA: inhibit the integration of viral DNA into the target DNA
HIV IN [2]
  interaction with HIV IN by two-hybrid: interacted with the viral target
HPVE7
  interaction with false bait HPVE7: not false baits
HPVE6
  interaction with false bait HPVE6: not false baits

## CC[C@H](C)[C@H](NC(=O)[C@H](CC(C)C)NC(=O)[C@@H](NC(=O)[C@@H](NC(=O)[C@H](CCC(=O)O)NC(=O)[C@H](Cc1ccc(O)cc1)NC(=O)[C@@H](N)CC(C)C)[C@@H](C)O)[C@@H](C)CC)C(=O)N[C@@H](CC(C)C)C(=O)N[C@@H](CC(C)C)C(=O)N[C@@H](Cc1ccccc1)C(=O)N[C@@H](CC(C)C)C(=O)N[C@@H](CC(=O)O)C(=O)N[C@H](C(=O)N[C@@H](CC(=O)O)C(=O)N[C@H](C(=O)NCC(=O)N[C@@H](CC(=O)O)C(=O)N[C@@H](CCC(=O)O)C(=O)N[C@@H](CC(=O)O)C(=O)O)[C@@H](C)O)C(C)C [B05759] (H-LYETILILLFLDVDTGDED-OH; N-terminus and C-terminus assumed)
Peptide solubility
  peptide solubility: increased peptide solubility
